Article PMC5457521 (Nature Communications, 2017)

Key:
[1] = target: T1, DENV2 sE strain FGA02, wild type (recombinant E ectodomain) (Dengue virus 2, strain FGA-02 …, strain); assay: ELISA; capture ELISA: mAb coated at 5 μg ml^−1 on MAXISORP plates; serial dilutions of Strep-tagged sE in solution; ALP-labelled Strep-Tactin; conditions: one partner purified
T1 construct: also called sE WT; DENV2 FGA02 WT

[2] = target: T1, DENV2 sE strain FGA02, wild type …; assay: SEC-MALS; mixture of 150 μg DENV2 FGA02 sE with 300 μg Fab, Superdex 200 10/300 GL, run in a similar manner as sE alone; conditions: both partners purified

B1: anti-EDE2 mAb 747(4)B7, human IgG (antibody, V domains shown)
VH: EVQLVESGGGLVQPGGSLKLSCAASGFTFSSHWMHWVRQAPGKGLVWVSRTNSDGSSTSYADSVKGRFMISRDNSKNTVYLHMNGLRAEDTAVYFCARDGVRYYYDSTGYYPDNFFQYGLDVWGQGTTVTVSS
VL: QSALTQPASVSGSPGQSITISCTGISSDVETYNLVSWYEQHPGKAPKLIIYEASKRPSGVSNRFSGSKSGNTASLAISGLQAEDEADYYCCSYAGGKSLVFGGGTRLTVL
binding result [1]: binds

B2: anti-EDE2 mAb 747(4)A11, human IgG (antibody, V domains shown)
VH: EVQLVESGGGLVRPGGSLRLSCAASGFSYSNHWMHWVRQAPGKGLVWVSRINSDGSTRNYADFVKGRFTISRDNAENTLYLEMNSLTADDTAVYYCVRDGVRFYYDSTGYYPDSFFKYGMDVWGQGTTVTVSS
VL: QSVLTQPVSVSGSPGQSITISCTGTSSNADTYNLVSWYQQRPGKAPKLMIYEGTKRPSGVSNRFSASKSATAASLTISGLQPEDEADYYCCSYATSRTLVFGGGTKLTVV
binding result [1]: binds

B3: anti-EDE2 Fab A11 (Fab of human mAb 747(4)A11) (Fab, V domains shown)
VH: EVQLVESGGGLVRPGGSLRLSCAASGFSYSNHWMHWVRQAPGKGLVWVSRINSDGSTRNYADFVKGRFTISRDNAENTLYLEMNSLTADDTAVYYCVRDGVRFYYDSTGYYPDSFFKYGMDVWGQGTTVTVSS
VL: QSVLTQPVSVSGSPGQSITISCTGTSSNADTYNLVSWYQQRPGKAPKLMIYEGTKRPSGVSNRFSASKSATAASLTISGLQPEDEADYYCCSYATSRTLVFGGGTKLTVV
binding result [2]: binds
